Target: purified SARS-CoV-2 RBD (limits of the construct not stated) (SARS-CoV-2, UniProt P0DTC2 331-550)
Assay: told in the legend of the ELISA figure (Fig. 38)

B1: S309-14 (S309 with VH W105F mutation) (antibody, V domains shown)
VH: not shown
VL: EIVLTQSPGTLSLSPGERATLSCRASQTVSSTSLAWYQQKPGQAPRLLIYGASSRATGIPDRFSGSGSGTDFTLTISRLEPEDFAVYYCQQHDTSLTFGGGTKVEIK
B1: binds.

— patent publication CN116745314A (VIR BIOTECHNOLOGY CO LTD, dated 2023)
